Results: the nanobody polyreactivity screen of Harvey et al. (2022)

Test: yeast display, Sf9 membrane polyspecificity reagent, FACS + sequencing; frameworks hold sequencing errors
Method in brief: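 Galactose-induced (36–48 hours) yeast carrying a synthetic nanobody display library were exposed to 10% biotinylated, detergent-solubilized Sf9 membrane reagent at 4 °C for 1 hour. FACS followed streptavidin microbead enrichment, using low and high (top ~1%) gates for expression (anti-HA) and reagent binding (streptavidin). Colony PCR, MiSeq 2 × 250 sequencing and CDR-length filtering followed. Labels for polyreactivity reflect the gate of origin.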

Row | Sequence | polyreactivity (PSR sort gate)
1 | QVQLVESGGGLVQAGGSLRLSCAASGSTFPYYTMGWYRQAPGKERELVAAITWRGGRTYYADSVKGRFTISRDNAKNTVYLQMNSLKPEDTAVYYCAVYRRWYSGLYDYWGQGTQVTVSS | high polyreactivity
2 | QVQLVESGGGLVQAGGSLRLSCAASGRIFRQNAMGWYRQAPGKERELVAAISRSGGSTYYADSVKGRFTISRDNAKNTVYLQMNSLNPEDTAVYYCNRDYQSQRTYPRRYDYWGQGTQVTVSS | low polyreactivity
3 | QVQLVESGGGLVQAGGSLRLSCAASGRIFNLYAMGWYRQAPGKERELVAAISYSGGRTYYADSVKGRFTISRDNAKNTVYLQMNSLKPEDTAVYYCNTVRGSVRQAGVGYDYWGQGTQVTVSS | high polyreactivity
4 | QVQLVESGGGLVQAGGSLRLSCAASGFIFGLYAMGWYRQAPGKERELVATISWDGGSTYYADSVKGRFTISRDYAKNTVYLQMNSLKPEDTAVYYCAATYLYRSPYVPMDYWGQGTQVTVSS | low polyreactivity
5 | QVQLVESGGGLVQAGGSLRLSCAASGLIFVSYAMGWYRQAPGKERELVAAISSGGSTYYADSVKGRFTISRDNAKNTVYLQINSLKPEDTAVYYCAAEYVFRGYVGYDYWGQGTQVTVSS | low polyreactivity
6 | QVQLVESGGGLVQAGGSLRLSCAASGSTFAIYAMGWYRKSPGKERELVASISGGSTNYADSVKGRFTISRDNAKNTVYLQMNSLKPEDTSVYYCAARGALHHWYRFDYWGQGTQVTLSS | low polyreactivity
7 | QVQLVESGGGLVQAGGSLRLSCAASGSIFSFNAMGWYRQAPGKEREFVAAIFGVTRTYYADSVKGRFTISRDNAKNTVYLQMNSLKPEDTAVYYCAARPPYRRYSEPRFGYWGQGTQVTVSS | high polyreactivity
8 | QVQLVESGGGLVQAGCSLRLSCAASGRIDRRYAMGWYRQAPGKERDLFAAISSRGGRTYYADSVKGRFTISRDNAMNTVYLQMNSLKQEDTAVYYCAARPAGYGHYKYYYWGKGTQVTVSS | high polyreactivity
9 | QVQLVESGGGLVQAGGSLRLSCAASGFIFSAYAMGWYRQAPGKERELVAAITKRGGTTYYADSVKGRFTISRDNAKNTVYLQMNSLKPEDTAVYYCATRQLSKVKDMDYWGQGTQVTVSS | high polyreactivity
10 | QVQLVESGGGLVQAGGSLRVSCAASGSFFVPYAMGWYRHAPGKERELVAAISRGGDTNYADSEKGRFTISRDNAKNTVYLQRNSLKPEDTAVYYCNRARHHYSRWHGGYYYWGQGTQETVSS | low polyreactivity
11 | QVQLVESGGGLVQAGGSLRLSCAASGNIFNEYARGWYSQAPGKESELVAAITWSAGSTYYADSVKGRFTISRDNAKNTVYLQMNSVKPEDTGVYYCNTQEKANTQHYYWGQGTQVTVSS | low polyreactivity
12 | QVQLVESGGGLVQAGGSLRLSCAASGRTFDSNAMGWYRQAPGKERELVAAISYSGGSTYYADSVKGRFTISRDNAKNTVYLQMNSLKPEDTAVYYCNAGDVHKKPARDYWGQGTQVTVSS | low polyreactivity
13 | QVQQQESGGGLVQAGGSLRLSCAASGTIFQLTVMGRYRQAPGKERELVASIDYGGNTNYADSVKGRFTISRDNAKNTVYLQMNSLKPEDTAVYYCAASSDSWTTHPYWGQGTQVTVSS | low polyreactivity
14 | QVQLVESGGGLVQAGGSLRLICAASGLTFGSYAMGWYRQAPGKERELVAAISRSGGSTYYADSVKGRFTISRDNAKNTVYLQMNSLKPEDTAVYYCNAVNPYYAPTDRRVGYDYWGQGTQVTVSS | high polyreactivity
15 | QGQLVESGGGLVQAGGSLRLSCAASGRTYDYNAMGWYRQAPWKEWELVAAISSGGSITHYADSVKGRFTISRDNAKNTVYFQMYSLKPEDTAVYYCNAAHLAHRFIGYTRWNYYYWGQGTQVTVTS | high polyreactivity
16 | QVQLVESGGGLVQAGGSLRLSCAASGSTFGYYAMGWYRQAPGKERELVAAISLGGGSTYYADSVKGRFTISRDNAKNTVYLQMNSLKPEDTEVYYCAARPYVRVKWKFNYWGQGTQVTVSS | low polyreactivity
17 | QVQLVESGGGLVQAGGSLRLSCAASGSTFYYYAMGWYRQAPGKERELVAAISGGGNTKYADSVKGRFTISRDNAKNTVYLQMNSLKPEDTAVYYCAARLAYWYYYAWRGPYYYWGQGPQVTVSS | high polyreactivity
18 | QVQLVESGGGLVQAGGSLRLSCAASGFTFSAYAMGWYRQAPGKERELVVAISLSGGSTYYADSVKGRFTISRDNAKNTVYLQMNSLKPEDTAVYYCNADSYWHWGEWLYAPYDYWGQGTQVTVSS | low polyreactivity
19 | QVQLVESGGGLVQAGGSLRLSCAASGSTFYGNDMGWYRQAPGKERELVAAISSGGSTNYADSVKGRFTISRDNAKNTVYLQMNSLKPEDTAVYYCAADDTPDTISGSDYWGQGTQVTVSS | low polyreactivity
20 | QVQLVESGGGLVQAGGSLRLSCAASGSTFQFNVMGWYRQAPGKERELVAAITSGASTYYADSVKGRFTISRDNAKNTVYLQMNSLEPVDTAVYYWAVDYSFRYDYVQRYYYWGQGTQVTVSS | high polyreactivity
21 | QGQLVESCGGLVQAGGSLRFICAASGSNFFSYAMGCYRQAPWKERELVASISRRGGTTYYADSVKGRFTISRDNAKNTVYLHMNSLKPDDTAVYYCAAKLLYGGRYGYWGQGTQVTVSS | high polyreactivity
22 | QVQLVESGGGLVQAGGSLRLSCAGSGSTFYFYVMGWYRQAPGKDRELVAAITWSGGRTSYADSVKGRFTISRDNAKNTVYLQMNSLKPEDTAVYYCNTDGYPRLYIYDYWGQGTQVTVSS | low polyreactivity
